The target in assay [1] is T1, HLA-DQ2.5 on IHW09023 cells loaded with gamma 3 gliadin peptide (human; wheat). Nature of the assay: cell-based or functional assay.
Assay [2] concerns the target T2, HLA-DQ2.5 on IHW09023 cells loaded with 33 mer gliadin peptide (human; wheat). Nature of the assay: cell-based or functional assay.
The target of assay [3] is T3, HLA-DQ2.5 on IHW09023 cells loaded with gamma 4d gliadin peptide (human; wheat). Nature of the assay: cell-based or functional assay.
In assay [4] the target is T4, HLA-DQ2.5 on IHW09023 cells loaded with BC hordein peptide (human; barley). Nature of the assay: cell-based or functional assay.
For assay [5], the target named is T5, HLA-DQ2.5 on IHW09023 cells loaded with gamma 4a gliadin peptide (human; wheat). Nature of the assay: cell-based or functional assay.
Assay [6] addresses T6, HLA-DQ2.5 on IHW09023 cells loaded with gamma 2 gliadin peptide (human; wheat). In words: cell-based or functional assay.
Assay [7] deals with T7, HLA-DQ2.5 on IHW09023 cells loaded with omega1/2 gliadin peptide (human; wheat). In words: cell-based or functional assay.
Assay [8] addresses T8, HLA-DQ2.5 on IHW09023 cells loaded with gamma 1 gliadin peptide (human; wheat). Nature of the assay: cell-based or functional assay.
In assay [9] the target is HLA-DQ2.2 on HBBB2.2 cells loaded with 33 mer gliadin peptide (human; wheat). In words: cell-based or functional assay.
In assay [10] the target is T9, HLA-DQ7.3 on Ba/F3 cells (human, UniProt P01909 24-216; P01920 33-230, limits assumed).
T9 construct: whole, on cells; also called Ba/F3-HLA-DQ7.3
T9 MHC II alpha: not shown
T9 MHC II beta: not shown
Nature of the assay: FACS, Ba/F3 cells; %MFI with IC17dK 0 and DQN0139bb 100. On the technique in general: A flow cytometer gives signals particle by particle.

The target in assay [11] is T10, HLA-DQ2.5 on Ba/F3 cells (human, UniProt P01909 24-216, limits assumed).
T10 construct: whole, on cells; MHC class II without a fused peptide; also called Ba/F3-HLA-DQ2.5
Described as above.

The target of assay [12] is T11, HLA-DQ2.2 on Ba/F3 cells (human, UniProt P01909 24-216, limits assumed).
T11 construct: whole, on cells; also called Ba/F3-HLA-DQ2.2
T11 MHC II alpha: not shown
T11 MHC II beta: not shown
The description is as above.

In assay [13] the target is T12, HLA-DQ7.5 on Ba/F3 cells (human, UniProt P01909 24-216; P01920 33-230, limits assumed).
T12 construct: whole, on cells; also called Ba/F3-HLA-DQ7.5
The assay is described as above.

Assay [14] concerns the target T13, HLA-DQ8 on Ba/F3 cells (human, UniProt P01909 24-216; P01920 33-230, limits assumed).
T13 construct: whole, on cells; also called Ba/F3-HLA-DQ8
T13 MHC II alpha: not shown
T13 MHC II beta: not shown
Described as above.

For assay [15], the target named is T14, HLA-DQ5.1 on Ba/F3 cells (human, limits assumed).
T14 construct: whole, on cells; also called Ba/F3-HLA-DQ5.1
T14 MHC II alpha: not shown
T14 MHC II beta: not shown
Nature of the assay: FACS, Ba/F3 cells; raw MFI.

Assay [16] has as its target T15, HLA-DR on Ba/F3 cells (human, UniProt P01903 26-216; P79483 30-227, limits assumed).
T15 construct: whole, on cells; also called Ba/F3-HLA-DR
T15 MHC II alpha: not shown
T15 MHC II beta: not shown
Nature of the assay: FACS, Ba/F3 cells; raw MFI.

Assay [17] has as its target T16, HLA-DQ6.3 on Ba/F3 cells (human, UniProt P01920 33-230, limits assumed).
T16 construct: whole, on cells; also called Ba/F3-HLA-DQ6.3
T16 MHC II alpha: not shown
T16 MHC II beta: not shown
In words: FACS, Ba/F3 cells; raw MFI.

Assay [18] deals with T17, HLA-DP on Ba/F3 cells (human, UniProt P20036 29-222; P04440 30-225, limits assumed).
T17 construct: whole, on cells; also called Ba/F3-HLA-DP
T17 sequence (P20036 29-222 limits assumed, chain 1 of 4, other chains not shown): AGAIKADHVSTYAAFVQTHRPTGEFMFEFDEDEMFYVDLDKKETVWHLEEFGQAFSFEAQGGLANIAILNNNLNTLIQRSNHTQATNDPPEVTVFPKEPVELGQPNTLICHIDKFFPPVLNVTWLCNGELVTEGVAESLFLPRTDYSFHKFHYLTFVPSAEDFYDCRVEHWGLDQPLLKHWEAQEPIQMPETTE
T17 sequence (P04440 30-225 limits assumed, chain 2 of 4, other chains not shown): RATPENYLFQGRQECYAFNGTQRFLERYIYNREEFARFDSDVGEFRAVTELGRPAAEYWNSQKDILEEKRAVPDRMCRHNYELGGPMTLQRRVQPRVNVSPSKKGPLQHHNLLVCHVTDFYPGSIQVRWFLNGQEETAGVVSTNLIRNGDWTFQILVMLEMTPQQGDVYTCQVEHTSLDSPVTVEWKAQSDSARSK
In words: FACS, Ba/F3 cells; raw MFI.

For assay [19], the target named is T1, HLA-DQ2.5 on IHW09023 cells loaded with …. In words: cell-based or functional assay. The source holds these as a separate data set.
Assay [20] deals with T2, HLA-DQ2.5 on IHW09023 cells loaded with …. In words: cell-based or functional assay. This is another data set of the same source.
The target in assay [21] is T3, HLA-DQ2.5 on IHW09023 cells loaded with …. Nature of the assay: cell-based or functional assay. This is another data set of the same source.
Assay [22] deals with T4, HLA-DQ2.5 on IHW09023 cells loaded with …. Nature of the assay: cell-based or functional assay. This is another data set of the same source.
For assay [23], the target named is T5, HLA-DQ2.5 on IHW09023 cells loaded with …. In words: cell-based or functional assay. This is another data set of the same source.
For assay [24], the target named is T6, HLA-DQ2.5 on IHW09023 cells loaded with …. Nature of the assay: cell-based or functional assay. This is another data set of the same source.
Assay [25] has as its target T7, HLA-DQ2.5 on IHW09023 cells loaded with …. Nature of the assay: cell-based or functional assay. This is another data set of the same source.
For assay [26], the target named is T8, HLA-DQ2.5 on IHW09023 cells loaded with …. Nature of the assay: cell-based or functional assay. The source holds these as a separate data set.

Residue numbers refer to the chain shown, from its start. Read-outs that look alike come from different tables or passages of the source.

B1: DQN0344H1013/L0620//DQN0385H1521/L0605-F6.v2 (bispecific antibody, V domains shown)
VH 1: QVQLVESGGGVVQPGRSLRLSCAASGFTFSSAYWMVWVRQAPGQGLEWMGAVYGGSDTTYYAKWTEGRFTISRDTSKNTLYLQMNSLRAEDTAVYYCAREPLNYYYYGELNVWGQGTLVTVSS
VL 1: DIQMTQSPSSLSASVGDRVTITCQATENIYSGLAWYQQKPGKAPKLLIYYVSTLAYGIPARFSGSGSGTDFTLTISSLEPEDFAVYYCQTYEDVSAVTFGQGTKVEIK
VH 2: QVQLVESGGGVVQPGRSLRLSCAASGFTFESWYFMSWVRQAPGKGLEWVASIDTGSGSIDYAEWVEGRFTISRDNSKNTLYLQMNSLRAEDTAVYYCARDIGIDYNFWGPGTLVTVSS
VL 2: DIQMTQSPSSLSASVGDRVTITCQTTQSISSYLNWYQQKPGQPPKLLIYYASTKAEGIPARFSGSGSGTDFTLTISSLEPEDFAVYYCHYGISKVSFGQGTKVEIK
With B1, in assay [1], the “IC50, γ3 gliadin TCR, 100 µM γ3 gliadin” value came to 1.21 ng/mL. Besides, in assay [2], the “IC50, α1a gliadin TCR, 250 nM 33mer gliadin” value (“IC50, α1a gliadin TCR” for short) came to 0.6 ng/mL; the “IC50, α1b gliadin TCR, 250 nM 33mer gliadin” value (from here on “IC50, α1b gliadin TCR”) came out at 1.81 ng/mL; the “IC50, α2 gliadin TCR, 250 nM 33mer gliadin” value (from here on “IC50, α2 gliadin TCR”) turned out to be 0.33 ng/mL. For the same molecule, in assay [3], the “IC50, γ4d gliadin TCR, 100 µM γ4d gliadin” value (“IC50, γ4d gliadin TCR” for short) was 9.23 ng/mL. In addition, the “IC50, BC hordein TCR, 250 nM BC hordein” value in [4] turned out to be 11.4 ng/mL. Besides, the “IC50, γ4a gliadin TCR, 25 µM γ4a gliadin” value in assay [5] worked out at 1250 ng/mL. In [6], the “IC50, γ2 gliadin TCR, 250 nM γ2 gliadin” value was 785 ng/mL. Also, in [7], the “IC50, ω1 gliadin TCR, 25 µM ω1/2 gliadin” value was 1.96 ng/mL and the “IC50, ω2 gliadin TCR, 250 nM ω1/2 gliadin” value (from here on “IC50, ω2 gliadin TCR”) is 0.2 ng/mL. In addition, in assay [8], the “IC50, γ1 gliadin TCR, 250 nM γ1 gliadin” value came out at 1.9 ng/mL. In [9], the “IC50, HLA-DQ2.2, α1a gliadin TCR, 25 µM 33mer gliadin” value was determined as 1.16 ng/mL and the “IC50, HLA-DQ2.2, α2 gliadin TCR, 1 µM 33mer gliadin” value was found to be 6.51 ng/mL.

B2: DQN0344H1013/L0620//DQN0385H1270/L0681-F6.v2 (bispecific antibody, V domains shown)
VH 1: B1 VH 1
VL 1: B1 VL 1
VH 2: B1 VH 2 with E30S, S31E
VL 2: B1 VL 2 with S67L
Consider B2, for which the “IC50, γ3 gliadin TCR, 100 µM γ3 gliadin” value in assay [1] was 4.84 ng/mL. Besides, in [2], the “IC50, α1a gliadin TCR” value was 0.63 ng/mL; the “IC50, α1b gliadin TCR” value was found to be 1.42 ng/mL; the “IC50, α2 gliadin TCR” value amounted to 0.53 ng/mL. In addition, the “IC50, γ4d gliadin TCR” value in assay [3] turned out to be 27.8 ng/mL. Further, the “IC50, BC hordein TCR, 250 nM BC hordein” value in [4] came out at 25.2 ng/mL. Also, in assay [5], the “IC50, γ4a gliadin TCR, 25 µM γ4a gliadin” value is 1980 ng/mL. Besides, the “IC50, γ2 gliadin TCR, 250 nM γ2 gliadin” value in assay [6] was found to be 280 ng/mL. In assay [7], the “IC50, ω1 gliadin TCR, 25 µM ω1/2 gliadin” value is 3.19 ng/mL and the “IC50, ω2 gliadin TCR” value was 0.49 ng/mL. For the same molecule, in assay [8], the “IC50, γ1 gliadin TCR, 250 nM γ1 gliadin” value came out at 5.85 ng/mL. For the same molecule, in assay [9], the “IC50, HLA-DQ2.2, α1a gliadin TCR, 25 µM 33mer gliadin” value came to 1.62 ng/mL and the “IC50, HLA-DQ2.2, α2 gliadin TCR, 1 µM 33mer gliadin” value stood at 4.6 ng/mL.

B3: DQN0344H1013/L0620//DQN0385H1270/L0722-F6 (bispecific antibody)
heavy 1: QVQLVESGGGVVQPGRSLRLSCAASGFTFSSAYWMVWVRQAPGQGLEWMGAVYGGSDTTYYAKWTEGRFTISRDTSKNTLYLQMNSLRAEDTAVYYCAREPLNYYYYGELNVWGQGTLVTVSSASTKGPSVFPLAPSSKSTSGGTAALGCLVKDYFPEPVTVSWNSGALTSGVHTFPAVLKSSGLYSLSSVVTVPSSSLGTQTYICNVNHKPSNTKVDKRVEPKSCDKTHTCPPCPAPELRRGPSVFLFPPKPKDTLMISRTPEVTCVVVDVSHEDPEVKFNWYVDGVEVHNAKTKPREEQYNSTYRVVSVLTVLHQDWLNGKEYKCKVSNKALPAPIEKTISKAKGQPREPQVYTLPPSREEMTKNQVSLTCLVKGFYPSDIAVEWESNGQPENNYKTTPPYLDSDGSFFLYSKLTVDKSRWQEGNVFSCSVLHEALHAHYTREELSLSP
light 1: DIQMTQSPSSLSASVGDRVTITCQATENIYSGLAWYQQKPGKAPKLLIYYVSTLAYGIPARFSGSGSGTDFTLTISSLEPEDFAVYYCQTYEDVSAVTFGQGTKVEIKRTVAAPSVFIFPPSDEQLKSGTAEVVCLLNNFYPREAKVQWKVDNALQSGNSEESVTEQDSKDSTYSLSSTLTLSKADYEKHKVYACEVTHQGLSSPVTKSFNRGEC
heavy 2: QVQLVESGGGVVQPGRSLRLSCAASGFTFSEWYFMSWVRQAPGKGLEWVASIDTGSGSIDYAEWVEGRFTISRDNSKNTLYLQMNSLRAEDTAVYYCARDIGIDYNFWGPGTLVTVSSASTKGPSVFPLAPSSKSTSGGTAALGCLVEDYFPEPVTVSWNSGALTSGVHTFPAVLESSGLYSLSSVVTVPSSSLGTKTYICNVNHKPSNTKVDKRVEPKSCDKTHTCPPCPAPELRRGPSVFLFPPKPKDTLMISRTPEVTCVVVDVSHEDPEVKFNWYVDGVEVHNAKTKPREEQYNSTYRVVSVLTVLHQDWLNGKEYKCKVSNKALPAPIEKTISKAKGQPREPQVYTLPPSRKEMTKNQVSLTCLVKGFYPSDIAVEWESNGQPENNYKTTPPYLDSDGSFFLYSKLTVDKSRWQQGNVFSCSVLHEALHAHYTRKELSLSP
light 2: DIQMTQSPSSLSASVGDRVTITCQTTQSISSYLNWYQQKPGQPPKLLIYYASTKAEGIPARFSGSGLGTDFTLTISSLQPEDFAVYYCHYGISKVSFGQGTKVEIKRTVAAPSVFIFPPSDEQLKSGTAKVVCLLNNFYPREAKVQWKVDNALQSGNSKESVTEQDSKDSTYSLSSTLTLSKADYEKHKVYACEVTHQGLSSPVTKSFNRGEC
As for B3, the binding result in assay [10], in assay [11], in [12], in [13], in assay [14] and in assay [15] was “no binding (tested: 0.05 ug/mL)” in each case. Also, the binding result in assay [16], in assay [17] and in assay [18] was “no binding (tested: 0.05 ug/mL)” throughout. Besides, in [19], the “IC50, γ3 gliadin TCR, 100 µM γ3 gliadin” value stood at 3.31 ng/mL. In addition, the “IC50, α1a gliadin TCR” value in assay [20] is 0.27 ng/mL. For the same molecule, the “IC50, α1b gliadin TCR” value in [20] came out at 1.25 ng/mL. Moreover, in [20], the “IC50, α2 gliadin TCR” value is 0.33 ng/mL. In assay [21], the “IC50, γ4d gliadin TCR” value was 10.1 ng/mL. Further, the “IC50, BC hordein TCR, 250 nM BC hordein” value in [22] was 9.7 ng/mL. Also, the “IC50, γ4a gliadin TCR, 25 µM γ4a gliadin” value in assay [23] is 1150 ng/mL. Moreover, the “IC50, γ2 gliadin TCR, 250 nM γ2 gliadin” value in assay [24] is 277 ng/mL. The “IC50, ω1 gliadin TCR, 25 µM ω1/2 gliadin” value in assay [25] worked out at 2.17 ng/mL. Moreover, the “IC50, ω2 gliadin TCR” value in assay [25] was found to be 0.22 ng/mL. Further, the “IC50, γ1 gliadin TCR, 250 nM γ1 gliadin” value in [26] amounted to 1.03 ng/mL.

The values above are taken from patent US20220089743A1 (Chugai, published 2022).
